# According to patent US20050096288:
# Target: VLDL (apolipoprotein B-100 containing) (Homo sapiens) (UniProt P04114)
# Test: EMSA
# Conditions: LDL has greater affinity
# Sequence of UniProt P04114 (P04114 28-4563): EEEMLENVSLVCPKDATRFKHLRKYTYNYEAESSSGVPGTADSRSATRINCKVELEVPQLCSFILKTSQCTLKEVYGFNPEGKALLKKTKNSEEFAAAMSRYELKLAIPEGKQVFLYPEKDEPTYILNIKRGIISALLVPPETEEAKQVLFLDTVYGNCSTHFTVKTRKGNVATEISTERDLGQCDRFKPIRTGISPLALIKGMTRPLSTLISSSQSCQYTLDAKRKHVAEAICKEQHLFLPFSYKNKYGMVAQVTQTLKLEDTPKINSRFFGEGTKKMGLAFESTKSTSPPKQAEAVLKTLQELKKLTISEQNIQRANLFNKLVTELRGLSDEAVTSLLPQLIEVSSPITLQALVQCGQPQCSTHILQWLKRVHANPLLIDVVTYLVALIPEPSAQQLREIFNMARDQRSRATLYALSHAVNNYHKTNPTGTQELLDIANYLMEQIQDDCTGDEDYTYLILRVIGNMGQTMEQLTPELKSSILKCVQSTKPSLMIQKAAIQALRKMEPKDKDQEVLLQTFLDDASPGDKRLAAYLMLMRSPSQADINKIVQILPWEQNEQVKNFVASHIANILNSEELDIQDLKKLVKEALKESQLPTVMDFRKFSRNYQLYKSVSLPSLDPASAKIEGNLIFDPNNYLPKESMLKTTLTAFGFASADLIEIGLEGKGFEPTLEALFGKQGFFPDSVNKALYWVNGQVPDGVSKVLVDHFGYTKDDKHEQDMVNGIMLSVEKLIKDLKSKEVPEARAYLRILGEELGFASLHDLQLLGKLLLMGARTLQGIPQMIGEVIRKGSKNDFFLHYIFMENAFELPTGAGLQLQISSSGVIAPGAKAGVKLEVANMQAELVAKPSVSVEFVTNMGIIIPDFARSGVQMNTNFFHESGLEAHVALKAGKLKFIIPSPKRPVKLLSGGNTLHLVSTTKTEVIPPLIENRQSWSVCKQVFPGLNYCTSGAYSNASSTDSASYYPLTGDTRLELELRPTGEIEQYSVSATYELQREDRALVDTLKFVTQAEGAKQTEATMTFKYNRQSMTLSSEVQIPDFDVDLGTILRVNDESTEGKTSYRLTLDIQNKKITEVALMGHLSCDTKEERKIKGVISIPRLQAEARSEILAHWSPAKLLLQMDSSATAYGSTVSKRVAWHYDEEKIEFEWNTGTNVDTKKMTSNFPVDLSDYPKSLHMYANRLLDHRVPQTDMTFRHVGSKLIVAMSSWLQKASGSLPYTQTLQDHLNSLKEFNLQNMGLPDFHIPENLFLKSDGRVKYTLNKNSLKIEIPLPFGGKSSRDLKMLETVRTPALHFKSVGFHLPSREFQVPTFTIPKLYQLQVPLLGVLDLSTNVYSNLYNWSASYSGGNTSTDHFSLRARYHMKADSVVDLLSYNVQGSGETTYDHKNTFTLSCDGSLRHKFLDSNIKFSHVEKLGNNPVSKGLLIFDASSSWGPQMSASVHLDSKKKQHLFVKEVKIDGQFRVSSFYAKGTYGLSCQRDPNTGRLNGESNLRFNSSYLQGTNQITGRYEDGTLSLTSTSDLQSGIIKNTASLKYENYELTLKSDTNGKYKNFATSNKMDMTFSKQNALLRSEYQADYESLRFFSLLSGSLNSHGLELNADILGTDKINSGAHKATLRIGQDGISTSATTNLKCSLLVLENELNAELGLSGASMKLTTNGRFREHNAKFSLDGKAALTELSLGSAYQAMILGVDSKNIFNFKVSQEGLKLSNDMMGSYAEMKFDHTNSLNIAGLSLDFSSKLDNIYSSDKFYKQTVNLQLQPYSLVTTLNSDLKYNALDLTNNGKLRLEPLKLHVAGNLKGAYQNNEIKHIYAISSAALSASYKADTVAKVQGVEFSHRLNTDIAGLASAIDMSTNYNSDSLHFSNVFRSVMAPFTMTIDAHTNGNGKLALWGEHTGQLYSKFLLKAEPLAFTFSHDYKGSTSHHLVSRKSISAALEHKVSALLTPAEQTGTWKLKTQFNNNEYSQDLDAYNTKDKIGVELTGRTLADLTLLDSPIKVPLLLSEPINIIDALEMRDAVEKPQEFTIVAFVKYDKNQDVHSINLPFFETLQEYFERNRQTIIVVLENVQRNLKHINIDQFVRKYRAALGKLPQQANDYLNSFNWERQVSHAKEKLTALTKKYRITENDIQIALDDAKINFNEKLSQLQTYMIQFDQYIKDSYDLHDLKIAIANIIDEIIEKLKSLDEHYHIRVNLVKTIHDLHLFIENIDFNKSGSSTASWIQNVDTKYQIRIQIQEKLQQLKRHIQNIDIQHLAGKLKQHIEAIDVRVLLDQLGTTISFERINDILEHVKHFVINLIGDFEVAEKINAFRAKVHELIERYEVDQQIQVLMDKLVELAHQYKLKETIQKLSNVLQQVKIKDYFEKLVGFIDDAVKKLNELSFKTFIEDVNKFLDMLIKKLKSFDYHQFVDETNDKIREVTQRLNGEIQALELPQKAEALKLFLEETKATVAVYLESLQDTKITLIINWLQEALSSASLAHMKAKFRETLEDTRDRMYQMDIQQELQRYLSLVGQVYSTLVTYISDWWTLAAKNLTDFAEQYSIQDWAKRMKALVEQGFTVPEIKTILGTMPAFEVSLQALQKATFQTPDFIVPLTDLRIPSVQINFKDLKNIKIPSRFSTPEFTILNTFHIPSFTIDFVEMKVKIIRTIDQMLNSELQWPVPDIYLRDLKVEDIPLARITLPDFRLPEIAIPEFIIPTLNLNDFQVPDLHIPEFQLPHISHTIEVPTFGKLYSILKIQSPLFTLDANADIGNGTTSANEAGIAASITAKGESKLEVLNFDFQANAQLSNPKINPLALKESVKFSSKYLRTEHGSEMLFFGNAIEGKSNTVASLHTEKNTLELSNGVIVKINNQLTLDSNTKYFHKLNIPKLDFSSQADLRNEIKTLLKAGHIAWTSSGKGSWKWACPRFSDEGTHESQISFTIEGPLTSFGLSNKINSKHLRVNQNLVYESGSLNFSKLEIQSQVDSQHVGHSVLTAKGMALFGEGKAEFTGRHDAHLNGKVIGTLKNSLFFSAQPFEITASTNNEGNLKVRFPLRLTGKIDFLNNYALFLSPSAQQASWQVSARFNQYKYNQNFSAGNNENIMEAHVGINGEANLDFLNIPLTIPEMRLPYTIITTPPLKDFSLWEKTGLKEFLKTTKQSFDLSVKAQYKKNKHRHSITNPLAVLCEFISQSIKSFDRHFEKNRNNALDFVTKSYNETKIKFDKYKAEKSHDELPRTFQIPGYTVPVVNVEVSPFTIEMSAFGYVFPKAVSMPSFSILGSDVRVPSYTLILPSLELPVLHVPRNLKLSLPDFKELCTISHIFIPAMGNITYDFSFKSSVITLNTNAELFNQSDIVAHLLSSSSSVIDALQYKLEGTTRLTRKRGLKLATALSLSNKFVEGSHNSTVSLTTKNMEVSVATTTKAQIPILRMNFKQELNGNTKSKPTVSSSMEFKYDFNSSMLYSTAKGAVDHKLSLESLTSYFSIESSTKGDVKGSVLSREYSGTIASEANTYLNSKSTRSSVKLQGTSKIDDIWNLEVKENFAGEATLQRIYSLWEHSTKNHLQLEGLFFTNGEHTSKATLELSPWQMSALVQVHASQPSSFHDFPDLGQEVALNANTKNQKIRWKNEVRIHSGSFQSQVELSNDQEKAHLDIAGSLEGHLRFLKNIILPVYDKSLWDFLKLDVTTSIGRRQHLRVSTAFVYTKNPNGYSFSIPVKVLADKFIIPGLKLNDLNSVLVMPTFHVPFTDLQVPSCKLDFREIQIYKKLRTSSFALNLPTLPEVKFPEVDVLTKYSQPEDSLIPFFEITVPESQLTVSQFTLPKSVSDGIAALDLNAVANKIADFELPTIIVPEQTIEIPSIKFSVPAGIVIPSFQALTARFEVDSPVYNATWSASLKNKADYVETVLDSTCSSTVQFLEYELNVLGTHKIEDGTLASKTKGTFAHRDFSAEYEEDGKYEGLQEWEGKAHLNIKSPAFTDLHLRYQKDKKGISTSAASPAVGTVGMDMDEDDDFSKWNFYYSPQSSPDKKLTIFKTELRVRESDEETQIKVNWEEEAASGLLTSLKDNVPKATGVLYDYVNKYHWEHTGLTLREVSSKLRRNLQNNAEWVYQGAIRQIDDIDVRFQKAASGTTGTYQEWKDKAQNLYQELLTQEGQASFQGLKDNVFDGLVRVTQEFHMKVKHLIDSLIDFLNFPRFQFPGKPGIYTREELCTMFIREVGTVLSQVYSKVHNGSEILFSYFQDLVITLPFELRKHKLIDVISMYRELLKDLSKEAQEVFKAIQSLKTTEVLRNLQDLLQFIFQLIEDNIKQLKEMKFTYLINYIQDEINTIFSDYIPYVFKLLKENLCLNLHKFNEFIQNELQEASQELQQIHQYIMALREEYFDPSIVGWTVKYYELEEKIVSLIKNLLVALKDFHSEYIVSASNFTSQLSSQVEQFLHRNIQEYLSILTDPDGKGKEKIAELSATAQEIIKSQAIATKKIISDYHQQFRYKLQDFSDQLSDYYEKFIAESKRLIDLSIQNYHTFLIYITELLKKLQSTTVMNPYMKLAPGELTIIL
row,Substance,binding signal (% of total labeled DNA)
1,E/C oligonucleotide (E-box CANNTG and CCAAT),< 1
2,SRE oligonucleotide,< 1
